In series [1] the target is Phi-29 (exo-) T373Y exo- (substitutions not given), T373Y (Bacteriophage phi29) (UniProt P03680). The note with it: tpol, unit not shown; unit assumed.
For series [2], the target named is Phi-29 (exo-) DNA polymerase exo- (substitutions not given) (Bacteriophage phi29) (UniProt P03680). Conditions: tpol, unit not shown; unit assumed.
Series [3] concerns the target Phi-29 (exo-) T373R exo- (substitutions not given), T373R (Bacteriophage phi29) (UniProt P03680). Conditions: tpol, unit not shown; unit assumed.
The target of series [4] is T1, Phi29 DNA polymerase (HRP-treated quantum dot conjugate) (Bacteriophage phi29, UniProt P03680 P03680:1-575).
T1 chain: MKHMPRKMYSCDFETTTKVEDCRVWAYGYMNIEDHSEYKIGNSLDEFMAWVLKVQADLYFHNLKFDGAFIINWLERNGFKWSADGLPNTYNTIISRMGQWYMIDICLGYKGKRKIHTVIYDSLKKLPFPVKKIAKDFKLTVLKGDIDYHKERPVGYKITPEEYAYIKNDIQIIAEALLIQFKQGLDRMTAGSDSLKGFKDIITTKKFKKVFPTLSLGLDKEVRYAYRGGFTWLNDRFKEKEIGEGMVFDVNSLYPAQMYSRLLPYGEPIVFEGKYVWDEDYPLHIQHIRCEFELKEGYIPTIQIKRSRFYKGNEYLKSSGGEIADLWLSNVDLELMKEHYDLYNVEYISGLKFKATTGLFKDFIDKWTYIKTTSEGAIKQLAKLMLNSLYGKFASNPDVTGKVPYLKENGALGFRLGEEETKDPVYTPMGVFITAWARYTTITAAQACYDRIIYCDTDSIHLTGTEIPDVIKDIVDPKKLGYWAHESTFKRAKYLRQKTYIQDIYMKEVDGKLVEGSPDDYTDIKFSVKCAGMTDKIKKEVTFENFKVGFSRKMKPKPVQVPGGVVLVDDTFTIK
As to the kind of experiment: FRET binding; 250 nM oligo. The note with it: tags: His tag, label: 3' Alexa Fluor 647, hairpin with 5' overhang. The method, then: and 40 nM of the nanoparticle-polymerase conjugates in 50 mM Tris, 50 mM NaCl and 10 mM MgCl₂. The reaction was excited at 450 nm and emission (e.g., FRET) was detected as a ratio of intensities at 605/670 (dot emission/ALEXA FLUOR 647 emission).

The target of series [5] is T2, His-tagged F-linker Phi29 DNA polymerase D169A (exo-) (Bacteriophage phi29, UniProt P03680 SEQ:27-596).
T2 chain: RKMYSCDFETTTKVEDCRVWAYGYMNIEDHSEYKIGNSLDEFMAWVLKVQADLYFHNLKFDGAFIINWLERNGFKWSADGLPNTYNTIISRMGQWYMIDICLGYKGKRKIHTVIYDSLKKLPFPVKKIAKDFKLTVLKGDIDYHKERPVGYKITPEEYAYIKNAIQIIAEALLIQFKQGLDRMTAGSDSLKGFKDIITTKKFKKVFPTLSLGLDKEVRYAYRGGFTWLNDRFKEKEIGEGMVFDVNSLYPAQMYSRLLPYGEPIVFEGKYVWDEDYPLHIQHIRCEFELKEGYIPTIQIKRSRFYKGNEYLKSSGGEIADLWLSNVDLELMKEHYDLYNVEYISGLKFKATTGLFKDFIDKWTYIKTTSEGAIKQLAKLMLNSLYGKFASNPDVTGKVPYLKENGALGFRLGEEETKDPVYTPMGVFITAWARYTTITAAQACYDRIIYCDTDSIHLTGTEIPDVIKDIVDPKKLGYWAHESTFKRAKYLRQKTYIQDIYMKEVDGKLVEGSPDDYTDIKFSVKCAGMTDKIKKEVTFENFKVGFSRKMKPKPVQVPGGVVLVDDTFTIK
Nature of the series: FRET binding; Mg/Mn buffer; untreated, GST- or UDG/UGI-treated dots. Conditions: tags: His tag and F-linker, linked to quantum dot; label: 3' Alexa Fluor 647; hairpin with 5' overhang.

Series [6] has as its target T3, HP1 Phi29 DNA polymerase D12A/D66A (Bacteriophage phi29, UniProt P03680 SEQ:26-600).
T3 chain: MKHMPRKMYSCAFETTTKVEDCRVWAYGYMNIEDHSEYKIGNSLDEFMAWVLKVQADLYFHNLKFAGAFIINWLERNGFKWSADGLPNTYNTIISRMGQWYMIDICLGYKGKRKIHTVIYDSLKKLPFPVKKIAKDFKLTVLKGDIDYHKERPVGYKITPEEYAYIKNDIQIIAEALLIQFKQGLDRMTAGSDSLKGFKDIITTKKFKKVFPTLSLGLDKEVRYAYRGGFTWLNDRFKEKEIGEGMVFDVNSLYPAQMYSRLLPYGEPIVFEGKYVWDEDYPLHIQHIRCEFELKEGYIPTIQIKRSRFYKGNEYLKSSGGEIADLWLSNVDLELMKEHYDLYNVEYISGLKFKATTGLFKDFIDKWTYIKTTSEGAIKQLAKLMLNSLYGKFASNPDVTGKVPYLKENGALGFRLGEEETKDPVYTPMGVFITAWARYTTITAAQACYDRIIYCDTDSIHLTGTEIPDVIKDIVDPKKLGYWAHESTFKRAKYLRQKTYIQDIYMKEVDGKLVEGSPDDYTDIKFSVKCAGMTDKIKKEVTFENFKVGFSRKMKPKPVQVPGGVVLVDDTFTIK
Nature of the series: FRET binding; 50 mM Tris pH 7.5, 50 mM NaCl, 10 mM MgCl2, 0.5 mM MnCl2; oligo 199 or 192 used. The note with it: tags: N-terminal His tag, linked to quantum dot; label: 3' Alexa Fluor 647; hairpin with 5' overhang.

Series [7] has as its target T4, PKA-tagged Phi29 DNA polymerase (Bacteriophage phi29, UniProt P03680 SEQ:30-599).
T4 chain: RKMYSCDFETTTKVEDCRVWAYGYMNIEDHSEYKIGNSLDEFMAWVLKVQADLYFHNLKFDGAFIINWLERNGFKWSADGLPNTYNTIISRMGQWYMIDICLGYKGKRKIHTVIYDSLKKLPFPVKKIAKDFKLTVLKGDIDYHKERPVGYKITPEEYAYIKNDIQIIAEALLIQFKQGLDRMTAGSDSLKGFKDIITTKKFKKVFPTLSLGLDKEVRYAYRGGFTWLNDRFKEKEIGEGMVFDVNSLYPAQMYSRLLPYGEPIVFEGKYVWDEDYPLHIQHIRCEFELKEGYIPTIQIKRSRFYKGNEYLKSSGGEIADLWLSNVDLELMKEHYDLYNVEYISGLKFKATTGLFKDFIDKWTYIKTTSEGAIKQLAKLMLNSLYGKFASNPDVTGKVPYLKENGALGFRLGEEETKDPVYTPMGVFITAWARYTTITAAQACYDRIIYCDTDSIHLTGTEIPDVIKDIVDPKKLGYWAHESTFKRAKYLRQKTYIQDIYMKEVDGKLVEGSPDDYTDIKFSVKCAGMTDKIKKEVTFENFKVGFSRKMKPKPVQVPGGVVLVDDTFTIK
Nature of the series: FRET binding. The note with it: label: 3' Alexa Fluor 647-dC; hairpin with 5' overhang. The protocol: 50 μl of the primer/template was transferred from each well of row two into 50 μl of the sample in each well of row one.
The microtiter plate was placed on the plate reader which was set to measure fluorescence at 605 nm and 670 nm with excitation at 450 nm. The results are depicted in FIG. 11. […] The ratio of 605 nm/670 nm signals is depicted in FIG. 11C.

For series [8], the target named is T2, His-tagged F-linker Phi29 DNA …. As to the kind of experiment: FRET binding; BSA-treated dots; dATP present. The note with it: tags: His tag and F-linker, linked to quantum dot; label: 3' Alexa Fluor 647; hairpin with 5' overhang. An excerpt: The binding reactions contained: 1× extension buffer, A1 nanoparticles-phi29 conjugates (or phi29 non-conjugated), oligonucleotide 229, and dATP. The binding reactions were serially diluted. […] The ratio of 605 nm/670 nm signals is depicted in FIG. 15C.

For “CGTTAACCGCCCGCTCCTTTGCAAC / GTTGCAAAGGAGCGGGCG [stopped-flow template/primer]”, the activity is 14 ms in series [1], 11 ms in series [2] and 15 ms in series [3].

TTATCTTTGTGGGTGACAGGTTTTTCCTGTCACC (structured_DNA) [AF647 hairpin (Example 15)]: the binding result in series [4] is given as “binds”. On to TTATCTTTGTGGGTGACAGGTTTTTCCTGTCACCC (structured_DNA) [oligo 199], for which the binding result in series [5] and in series [6] was “binds” throughout. For TTATCTTTGTGGGTGACAGGTTTTTCCTGTCACCC (structured_DNA) [JX338], the binding result in series [7] is listed as “binds”. On to TTTTTGCGGGTGACAGGTTTTTCCTGTCACCC (structured_DNA) [oligo 229], for which the binding result in series [8] was “binds”.

The record behind these values is US20110003343, “CONJUGATES OF BIOMOLECULES TO NANOPARTICLES” (LIFE TECHNOLOGIES CORPORATION, published 2011).
